According to patent publication US20180148497A1:

Columns and labels:
[1] = target: cell surface Env of HIV-1 infected (p24+) CD4+ T cells (IMCs subtype AE CM235, subtype B BaL, subtype C 1086.C, as a group); assay: flow cytometry, indirect staining of p24+ CD4+ T cells infected with BaL, CM235 or 1086.C IMC (FIG. 27)
[2] = target: cell surface Env of HIV-1 infected (p24+) CD4+ T cells (IMCs subtype AE CM235, subtype B BaL, subtype C 1086.C, as a group); assay: flow cytometry, staining of p24+ CD4+ T cells infected with BaL, CM235 or 1086.C IMC (FIG. 27)
[3] = target: cell surface Env of HIV-1 infected (p24+) CD4+ T cells (IMCs subtype AE CM235, subtype B BaL, subtype C 1086.C, as a group); assay: flow cytometry, negative control staining of p24+ IMC-infected CD4+ T cells (FIG. 27)

With “7B2 mAb (anti-gp41 cluster I) (antibody)” the % of HIV-1 infected (p24+) CD4+ T cells recognized [1] was 24 to 38%.
In the case of “HIV-1 × Fluorescein Bi-Specific Diabody (7B2 × 4420) (bispecific antibody)”, the % of HIV-1 infected (p24+) CD4+ T cells recognized [2] is reported as 66 to 78%.
With Palivizumab mAb (anti-RSV) (antibody) the % of HIV-1 infected (p24+) CD4+ T cells recognized [3] was less than 5%.
Substance “secondary conjugated Abs (secondary fluoresceinated anti-human IgG Abs) (antibody)” has a % of HIV-1 infected (p24+) CD4+ T cells recognized [3] of less than 5%.
